Reference: patent US11827885

B1: RNase A (protein)
chain: KETAAAKFERQHMDSSTSAASSSNYCNQMMKSRNLTKDRCKPVNTFVHESLADVQAVCSQKNVACKNGQTNCYQSYSTMSITDCRETGSSKYPNCAYKTTQANKHIIVACEGNPYVPVHFDASV

Legend:
RNase A = RNase A (UniProt P61823); test: cell-based or functional assay
[1] = molecular target: T1, Murine RNase Inhibitor (New England Biolabs, Ipswich, MA), Q91VI7
T1 chain: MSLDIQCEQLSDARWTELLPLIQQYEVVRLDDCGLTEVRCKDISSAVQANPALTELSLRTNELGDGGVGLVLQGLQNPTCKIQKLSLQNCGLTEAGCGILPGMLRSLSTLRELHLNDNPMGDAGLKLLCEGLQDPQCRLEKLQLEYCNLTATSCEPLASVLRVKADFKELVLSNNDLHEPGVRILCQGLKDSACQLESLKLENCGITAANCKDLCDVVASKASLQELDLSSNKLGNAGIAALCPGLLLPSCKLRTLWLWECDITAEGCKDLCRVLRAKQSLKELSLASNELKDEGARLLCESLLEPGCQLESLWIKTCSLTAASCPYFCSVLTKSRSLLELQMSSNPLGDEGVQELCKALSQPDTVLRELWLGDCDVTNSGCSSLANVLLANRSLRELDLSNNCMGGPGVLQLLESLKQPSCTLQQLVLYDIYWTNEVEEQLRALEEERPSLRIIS

| Molecule | inhibition of RNA degradation (gel), reaction at 60° C. (RNase A) [%] | RNA digestion (fluorescence of RNaseAlert RNA substrate, 37° C., 90 minutes) [1] |
| --- | --- | --- |
| SUPERase-In (ThermoFisher Scientific, Waltham, MA) | < 50 |  |
| B1 |  | Three RNase A aptamers and Murine RNase Inhibitor are able to inhibit RNA digestion, but Murine Inhibitor show a slows a loss in RNase inhibition over time |
